Experimental data reported in patent publication US20240043489A1, “Cytokine Prodrugs Comprising a Cleavable Linker” (Trutino Biosciences Inc., priority 2020, published 2024).

Experiments:
[1] = target: collagen (agarose cross-linked to collagen, Sigma); assay: pulldown on collagen-agarose beads, anti-mouse IL-2 immunoblot, band quantified with iBright
[2] = target: collagen (agarose cross-linked to collagen, Sigma); assay: pulldown on collagen-agarose beads, anti-mouse IL-2 immunoblot, bound fraction normalized to Construct B
[3] = target: collagen cross-linked to agarose (Sigma); assay: pulldown with collagen-agarose beads, anti-mouse IL-2 immunoblot quantified with iBright imaging system

Bound [1] | Bound (% input) [1] | Normalized (fold (relative to Construct B)) [2] | fraction bound (% of input) [3] | Binder
2310 | 0.3% | 1 | – | Construct B (Fc fusion) APTSSSTSSSTAEAQQQQQQQQQQQQHLEQLLMDLQELLSRMENYRNLKLPRMLTFKFYLPKQATELKDLQCLEDELGPLRHVLDLTQSKSFQLEDAENFISNIRVTVVKLKGSDNTFECQFDDESATVVDFLRRWIAFCQSIISTSPQSGGGGSGGGGGPLGVRGGGGGSGGGGSELCLYDPPEVPNATFKALSYKNGTILNCECKRGFRRLKELVYMRCLGNSWSSNCQCTSNSHDKSRKQVTAQLEHQKEQQTTTDMQKPTQSMHQENLTGHCREPPPWKHEDSKRIYHFVEGQSVHYECIPGYKALQRGPAISICKMKCGKTGWTQPQLTCVDEREHHRFLASEESQGSRNSSPESETSCPITTTDFPQPTETTAMTETFVLTMEYKGCKPCICTVPEVSSVFIFPPKPKDVLTITLTPKVTCVVVDISKDDPEVQFSWFVDDVEVHTAQTQPREEQFNSTFRSVSELPIMHQDWLNGKEFKCRVNSAAFPAPIEKTISKTKGRPKAPQVYTIPPPKEQMAKDKVSLTCMITDFFPEDITVEWQWNGQPAENYKNTQPIMDTDGSYFVYSKLNVQKSNWEAGNTFTCSVLHEGLHNHHTEKSLSHSPGK
5190 | 0.7% | 2.5 | – | Construct GG (Fc fusion) APTSSSTSSSTAEAQQQQQQQQQQQQHLEQLLMDLQELLSRMENYRNLKLPRMLTFKFYLPKQATELKDLQCLEDELGPLRHVLDLTQSKSFQLEDAENFISNIRVTVVKLKGSDNTFECQFDDESATVVDFLRRWIAFCQSIISTSPQSGGKLWVLPKGPLGVRGGGGGSGGGGSELCLYDPPEVPNATFKALSYKNGTILNCECKRGFRRLKELVYMRCLGNSWSSNCQCTSNSHDKSRKQVTAQLEHQKEQQTTTDMQKPTQSMHQENLTGHCREPPPWKHEDSKRIYHFVEGQSVHYECIPGYKALQRGPAISICKMKCGKTGWTQPQLTCVDEREHHRFLASEESQGSRNSSPESETSCPITTTDFPQPTETTAMTETFVLTMEYKGCKPCICTVPEVSSVFIFPPKPKDVLTITLTPKVTCVVVDISKDDPEVQFSWFVDDVEVHTAQTQPREEQFNSTFRSVSELPIMHQDWLNGKEFKCRVNSAAFPAPIEKTISKTKGRPKAPQVYTIPPPKEQMAKDKVSLTCMITDFFPEDITVEWQWNGQPAENYKNTQPIMDTDGSYFVYSKLNVQKSNWEAGNTFTCSVLHEGLHNHHTEKSLSHSPGK
– | – | – | < 1 % of input | Construct II: m IL2-…-MMPcs1-2x(G4S)-mIL2Ra(1-215)-mu IgG1 Fc (Fc fusion) APTSSSTSSSTAEAQQQQQQQQQQQQHLEQLLMDLQELLSRMENYRNLKLPRMLTFKFYLPKQATELKDLQCLEDELGPLRHVLDLTQSKSFQLEDAENFISNIRVTVVKLKGSDNTFECQFDDESATVVDFLRRWIAFCQSIISTSPQSLHERHLNNNGPLGVRGGGGGSGGGGSELCLYDPPEVPNATFKALSYKNGTILNCECKRGFRRLKELVYMRCLGNSWSSNCQCTSNSHDKSRKQVTAQLEHQKEQQTTTDMQKPTQSMHQENLTGHCREPPPWKHEDSKRIYHFVEGQSVHYECIPGYKALQRGPAISICKMKCGKTGWTQPQLTCVDEREHHRFLASEESQGSRNSSPESETSCPITTTDFPQPTETTAMTETFVLTMEYKGCKPCICTVPEVSSVFIFPPKPKDVLTITLTPKVTCVVVDISKDDPEVQFSWFVDDVEVHTAQTQPREEQFNSTFRSVSELPIMHQDWLNGKEFKCRVNSAAFPAPIEKTISKTKGRPKAPQVYTIPPPKEQMAKDKVSLTCMITDFFPEDITVEWQWNGQPAENYKNTQPIMDTDGSYFVYSKLNVQKSNWEAGNTFTCSVLHEGLHNHHTEKSLSHSPGK

The next lines start with the binder.

Binder | Bound [1] | Bound (% input) [1] | Normalized (fold (relative to Construct B)) [2] | fraction bound (% of input) [3]
Construct GG: m IL2-SGG-KLWVLPK-MMPcs1-2x(G4S)-mIL2Ra(1-215)-mu IgG1 Fc (Fc fusion) APTSSSTSSSTAEAQQQQQQQQQQQQHLEQLLMDLQELLSRMENYRNLKLPRMLTFKFYLPKQATELKDLQCLEDELGPLRHVLDLTQSKSFQLEDAENFISNIRVTVVKLKGSDNTFECQFDDESATVVDFLRRWIAFCQSIISTSPQSGGKLWVLPKGPLGVRGGGGGSGGGGSELCLYDPPEVPNATFKALSYKNGTILNCECKRGFRRLKELVYMRCLGNSWSSNCQCTSNSHDKSRKQVTAQLEHQKEQQTTTDMQKPTQSMHQENLTGHCREPPPWKHEDSKRIYHFVEGQSVHYECIPGYKALQRGPAISICKMKCGKTGWTQPQLTCVDEREHHRFLASEESQGSRNSSPESETSCPITTTDFPQPTETTAMTETFVLTMEYKGCKPCICTVPEVSSVFIFPPKPKDVLTITLTPKVTCVVVDISKDDPEVQFSWFVDDVEVHTAQTQPREEQFNSTFRSVSELPIMHQDWLNGKEFKCRVNSAAFPAPIEKTISKTKGRPKAPQVYTIPPPKEQMAKDKVSLTCMITDFFPEDITVEWQWNGQPAENYKNTQPIMDTDGSYFVYSKLNVQKSNWEAGNTFTCSVLHEGLHNHHTEKSLSHSPGK | – | – | – | < 1 % of input
Construct II (Fc fusion) APTSSSTSSSTAEAQQQQQQQQQQQQHLEQLLMDLQELLSRMENYRNLKLPRMLTFKFYLPKQATELKDLQCLEDELGPLRHVLDLTQSKSFQLEDAENFISNIRVTVVKLKGSDNTFECQFDDESATVVDFLRRWIAFCQSIISTSPQSLHERHLNNNGPLGVRGGGGGSGGGGSELCLYDPPEVPNATFKALSYKNGTILNCECKRGFRRLKELVYMRCLGNSWSSNCQCTSNSHDKSRKQVTAQLEHQKEQQTTTDMQKPTQSMHQENLTGHCREPPPWKHEDSKRIYHFVEGQSVHYECIPGYKALQRGPAISICKMKCGKTGWTQPQLTCVDEREHHRFLASEESQGSRNSSPESETSCPITTTDFPQPTETTAMTETFVLTMEYKGCKPCICTVPEVSSVFIFPPKPKDVLTITLTPKVTCVVVDISKDDPEVQFSWFVDDVEVHTAQTQPREEQFNSTFRSVSELPIMHQDWLNGKEFKCRVNSAAFPAPIEKTISKTKGRPKAPQVYTIPPPKEQMAKDKVSLTCMITDFFPEDITVEWQWNGQPAENYKNTQPIMDTDGSYFVYSKLNVQKSNWEAGNTFTCSVLHEGLHNHHTEKSLSHSPGK | 2280 | 0.4% | 1.4 | –
